Series [1] concerns the molecule itself. Kind of series: cell-based or functional assay.
Series [2] deals with the molecule itself. Kind of series: chromatofocussing; protein purified in LDAO, detergent exchanged to Triton X-100 by size-exclusion chromatography, then chromatofocussing; pI compared with that of the pentamer.
Series [3] deals with the molecule itself. Kind of series: CW-EPR, intersubunit spin-spin interaction (spectral broadening); heteropentamers with 1, 2 or 3 light switches reconstituted in asolectin liposomes, room temperature, X-band; maximally (10:1) against minimally (1:10) spin-labelled channels.
For series [4], the target named is T1, G22C MscL, StrepII-tagged, labelled with the light switch at cysteine 22 (E. coli, UniProt P0A742 1-136, G22C, cysteine 22 alkylated with the light switch (iodoacetate bearing the photocleavable protecting group 6-nitroveratryl alcohol)).
T1 construct: MscL, mechanosensitive channel of large conductance, E. coli; also called light switch-labeled-StrepII-tagged MscL; not shown: StrepII, C-terminal, kept
T1 sequence (looked up): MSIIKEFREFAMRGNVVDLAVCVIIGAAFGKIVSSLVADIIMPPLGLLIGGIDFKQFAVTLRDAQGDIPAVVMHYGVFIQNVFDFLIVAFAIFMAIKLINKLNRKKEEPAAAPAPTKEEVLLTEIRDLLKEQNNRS
Kind of series: sequential affinity chromatography (Ni-NTA, then Streptactin) + chromatofocussing; 6His-tagged and StrepII-tagged proteins purified in LDAO, mixed 1:1 (v/v), 45 min at room temperature, detergent exchanged to Triton X-100 by size exclusion; homopentamers removed on the two columns, heteropentamers separated on Mono P by pI. Conditions: both partners purified. On the technique in general: In gel filtration, larger molecules generally elute earlier.

Series [5] concerns the molecule itself. Kind of series: native gel or EMSA; blue native gel (8-16 % gradient); pure G22C MscL incubated 1 h at room temperature with urea, guanidinium hydrochloride or trifluoroethanol (various detergents also screened). On the technique in general: In EMSA bound probe runs differently from free probe, usually more slowly.

The source of these data is publication PMC4562997, “Study of light-induced MscL gating by EPR spectroscopy” (European Biophysics Journal, 2015).

B1: G22C-Strep MscL, unlabelled, after detergent exchange from LDAO to Triton X-100 (natural protein, E. coli, UniProt P0A742 1-136, looked up)
chain: MSIIKEFREFAMRGNVVDLAVCVIIGAAFGKIVSSLVADIIMPPLGLLIGGIDFKQFAVTLRDAQGDIPAVVMHYGVFIQNVFDFLIVAFAIFMAIKLINKLNRKKEEPAAAPAPTKEEVLLTEIRDLLKEQNNRS
notes: MscL, mechanosensitive channel of large conductance, E. coli
In general, stoichiometry N refers to a count of units in the complex or per binding partner. As to B1, the “calcein dequenching assay of MscL reconstituted into liposomes, percent release; after exchange of LDAO to Triton X-100 (same protein:lipid ratio)” value in series [1] is 85%. In addition, the “stoichiometry N” value in series [2] is 5.

B2: G22C MscL, 6His-tagged, labelled with the EPR spin label at cysteine 22 (natural protein, E. coli, UniProt P0A742 1-136, looked up)
chain: MSIIKEFREFAMRGNVVDLAVCVIIGAAFGKIVSSLVADIIMPPLGLLIGGIDFKQFAVTLRDAQGDIPAVVMHYGVFIQNVFDFLIVAFAIFMAIKLINKLNRKKEEPAAAPAPTKEEVLLTEIRDLLKEQNNRS
modifications: cysteine 22 labelled with (1-oxyl-2,2,5,5-tetramethylpyrrolin-3-methyl) methanethiosulfonate spin label (maximally, 10:1, or minimally, 1:10 label:protein)
notes: MscL, mechanosensitive channel of large conductance, E. coli; also called EPR spin-labeled- His-tagged MscL; source: E. coli PB104 (mscL-null), p1BAD vector, purified in LDAO (Ni-NTA), spin-labelled in detergent solution; not shown: 6His, C-terminal, kept
For the molecule B2, the binding result in series [3] and in series [4] was “binds” in each case.

B3: G22C MscL (mechanosensitive channel of large conductance, E. coli), pure, unlabelled, as run on the blue native gel (natural protein, UniProt P0A742 1-136, looked up)
chain: MSIIKEFREFAMRGNVVDLAVCVIIGAAFGKIVSSLVADIIMPPLGLLIGGIDFKQFAVTLRDAQGDIPAVVMHYGVFIQNVFDFLIVAFAIFMAIKLINKLNRKKEEPAAAPAPTKEEVLLTEIRDLLKEQNNRS
notes: MscL, mechanosensitive channel of large conductance, E. coli; The denaturant treatment stands in the methods right after the isolation of the 6His-tagged protein, so the 6His form is likely; source: E. coli PB104 (mscL-null), p1BAD vector, purified from membrane vesicles
Take B3: the “stoichiometry N” value in series [5] came out at 5.

B4: I24C MscL labelled with the EPR spin label at cysteine 24 (natural protein, E. coli, UniProt P0A742 1-136, looked up)
chain: MSIIKEFREFAMRGNVVDLAVGVCIGAAFGKIVSSLVADIIMPPLGLLIGGIDFKQFAVTLRDAQGDIPAVVMHYGVFIQNVFDFLIVAFAIFMAIKLINKLNRKKEEPAAAPAPTKEEVLLTEIRDLLKEQNNRS
modifications: cysteine 24 labelled with (1-oxyl-2,2,5,5-tetramethylpyrrolin-3-methyl) methanethiosulfonate spin label
notes: MscL, mechanosensitive channel of large conductance, E. coli; source: E. coli PB104 (mscL-null), p1BAD vector, purified, spin-labelled
Turning to B4, the binding result in series [3] and in series [4] was “binds” in each case.

B5: A28C MscL labelled with the EPR spin label at cysteine 28 (natural protein, E. coli, UniProt P0A742 1-136, looked up)
chain: MSIIKEFREFAMRGNVVDLAVGVIIGACFGKIVSSLVADIIMPPLGLLIGGIDFKQFAVTLRDAQGDIPAVVMHYGVFIQNVFDFLIVAFAIFMAIKLINKLNRKKEEPAAAPAPTKEEVLLTEIRDLLKEQNNRS
modifications: cysteine 28 labelled with (1-oxyl-2,2,5,5-tetramethylpyrrolin-3-methyl) methanethiosulfonate spin label
notes: as for B4
On to B5, for which the binding result in series [3] and in series [4] was “binds” in each case.
